In the RNAGym collection of RNA variant scans (doi:10.1073/pnas.2313332121):

B1: TPR t1 (parent)
chain: GACCAAUCUGCCCUCAGAGCUCGAGAACAUCUUCGGAUGCAGAGGAGGCAGGCUUCGGUGGCGCGAUAGCGCCAACGUCCUCAACCUCCAAUGCAUCCCACCACAUGAUGAUGCCUGAAGAGCCUUGGUUUUUUG

Variants of: B1
Assay: polymerase ribozyme fitness, log enrichment relative to wild type (log ratio); higher = more active; in vitro selection for triplet polymerase activity
Outline: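 Each subunit of a heterodimeric triplet polymerase ribozyme was mutagenized into a library by PCR, transcribed, and subjected to one round of in vitro selection, run in triplicate. Libraries were annealed with a biotinylated primer, the partner subunit and triplets, incubated frozen at −7 °C, and extended constructs were gel-excised, captured on streptavidin beads and recovered by RT-PCR. Input and output libraries were sequenced on Illumina, keeping genotypes with ≥10 input reads and ≥1 read per output. Fitness is log base 2 of genotype enrichment divided by wild-type enrichment, from inverse-variance-weighted replicate averages.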

Row | Variant | polymerase ribozyme fitness (log ratio)
1 | A2C C123A | -0.696
2 | A2C C124A | 0.652
3 | A2C G10U A37C C64U U112C | -1.73
4 | A2C G36A A50U G77A C123U | -2.76
5 | A2C G44A G113A | -4.5
6 | A2C G44A U59A U96A U112A U129A | -2.9
7 | A2C G45A C53A | -1.45
8 | A2C G45A G57A C114U C124U G127C | -5.9
9 | A2C G47U U78C U112C | -1.88
10 | A2C G52A C79A A95U C123U G135A | -1.79
11 | A2C G57C C72A C101A G135U | -3.06
12 | A2C G63U | -2.33
13 | A2C G63U C115U | -4.82
14 | A2C G69C A121U | -0.282
15 | A2C G71A C82A | -2.88
16 | A2C G71A U112G | -2.44
17 | A2C G117A | -3
18 | A2C G117C U131C U133C | -4.66
19 | A2C G117U U129A | -4.64
20 | A2C U7A C49U U96A C101A U125G | -3.99
21 | A2C U9G G61U G110A | -2.69
22 | A2C U21A C89G | -4.49
23 | A2C U55C C82G A91C A105U C123G | -6.66
24 | A2C U78C | -1.64

Row | Variant | polymerase ribozyme fitness (log ratio)
25 | A2C U116A | -4.2
26 | A2G A5U G71U A111U G120A | -5.48
27 | A2G A16C C89A G120C U133A G135C | -2.39
28 | A2G A27U C73G C79G C104U | -6.8
29 | A2G A29G | -1.34
30 | A2G A50U U81A | 0.17
31 | A2G A74C | -0.276
32 | A2G C4U C79A C115A | -5.2
33 | A2G C4U G35A G77A C98U C101A | -6.32
34 | A2G C8G G57U C85A | -1.4
35 | A2G C8U A83G | -0.602
36 | A2G C11A | -1.77
37 | A2G C11G G61A U129A G135U | -2.91
38 | A2G C11G U38G C82G | -4.28
39 | A2G C12G C20A G69U U78C U130C | -1.63
40 | A2G C12G G17A U54C C88U A91U C101U A105U C114G U131A | -5.89
41 | A2G C12U C89G | -0.965
42 | A2G C20A G63C C114A | -3.77
43 | A2G C34A U55A U112C | -0.554
44 | A2G C40A G58A | -1.21
45 | A2G C40U U55C | -1
46 | A2G C56G | -1.69
47 | A2G C56U | 0.13
48 | A2G C72U C88U C124A | 1.45

Row | Variant | polymerase ribozyme fitness (log ratio)
49 | A2G C73G C85A G113A G120C | -3.08
50 | A2G C88G G113C G128A U129G | -5.6
51 | A2G C99U C101A A121G C124G | -2.5
52 | A2G C104U | 0.0974
53 | A2G G10U C88U A119U | -0.34
54 | A2G G19A | -2.68
55 | A2G G19U C62U C86U | -3.94
56 | A2G G36A C49G G61U A83U G110U U129C | -4.82
57 | A2G G39U C115A | -1.93
58 | A2G G47C U81G | -3.47
59 | A2G G48U C53G C86U C98A C123G C124A | -6.57
60 | A2G G51A | -2.94
61 | A2G G51U C114U | -6.82
62 | A2G G58A U106A G122U C123U | 0.431
63 | A2G G60A | -0.122
64 | A2G G77A C102A C123G G128C | -3.09
65 | A2G G77U C86G G135U | -2.95
66 | A2G G110A | -1.38
67 | A2G U9C G69C | -0.585
68 | A2G U14A C62A | -3.69
69 | A2G U38G G42U G61U C73U C115U | -3.74
70 | A2G U59C C85U C124A | 0.474
71 | A2G U87A U112A | 1.3
72 | A2G U116A A121U | -0.583

Row | Variant | polymerase ribozyme fitness (log ratio)
73 | A2U A5C G63C | -3.31
74 | A2U A5G C12U G61A U112G | -2.18
75 | A2U A5G C12U U112G | -1.79
76 | A2U A5G U9G C13U C64U G122A | -1.31
77 | A2U A5U A27G C53G U87G | -4.56
78 | A2U A16G A27U A46G G60U U106A G110A | -5.21
79 | A2U A16U U32A A41C G69U C89A | -7.42
80 | A2U A37C G44A C53A G63C C124A | -3.55
81 | A2U A37U C72A U78A C124G | -0.247
82 | A2U A37U G48A C53U G60A C85A | -3.47
83 | A2U A41C C114U U133G | -5.64
84 | A2U A43U | -3.48
85 | A2U A46G C73U U81C | -3.83
86 | A2U A50G G71U A118G | -2.92
87 | A2U C3G C4U C72U G77A U92G A118U C123G G128A | -3.1
88 | A2U C3G C123G | -0.606
89 | A2U C3G G63A | -3.64
90 | A2U C4A C56G U78C C79G C101U | -3.31
91 | A2U C8A A41U C101U U130G | -1.84
92 | A2U C8A G19U A24U A26U U33C A108G A111C A121G | -7.47
93 | A2U C8G C101G | -2.67
94 | A2U C8U C11G C72A | -0.286
95 | A2U C8U G36U C80U G127C U130C | -3.03
96 | A2U C8U G45A C73U A95G G120A | -0.341

Row | Variant | polymerase ribozyme fitness (log ratio)
97 | A2U C11G G120A U132A | 0.742
98 | A2U C11G G122A | -0.62
99 | A2U C11U A27U G48U C64A C99G G113C | -6.93
100 | A2U C11U C22A A41C G71U C82A C88U A121G | -6.23
101 | A2U C12A A43U G120A | -1.89
102 | A2U C12A C49U | -3.6
103 | A2U C13G C62U | -2.85
104 | A2U C13G G60U C85A | -4.99
105 | A2U C13U C85G U131G | -3.98
106 | A2U C15A A16C G17A C72A C85G A118U C124G | -2.91
107 | A2U C20U G63C C89A A111C C123A | -4.79
108 | A2U C28U C49A C101G U106A | -4.56
109 | A2U C34A G60A G120U U125A U132A | -3.85
110 | A2U C40G C53G C72G | -2.9
111 | A2U C49U | -3.77
112 | A2U C56A U106A C115G | -4.51
113 | A2U C64U A83G A111C | -4.94
114 | A2U C64U C89G | -5.12
115 | A2U C64U C115G C124U | -4.43
116 | A2U C70G | -5.04
117 | A2U C72A A83U C123G U126A | -0.343
118 | A2U C72G | -1.72
119 | A2U C72U | -2.02
120 | A2U C73U | -2.69

Row | Variant | polymerase ribozyme fitness (log ratio)
121 | A2U C88G | -3.37
122 | A2U C89G | -5.02
123 | A2U C94U | -3.62
124 | A2U C104U | -1.41
125 | A2U C115A | -2.22
126 | A2U G10U A18G U33G G60A C124A | -6.77
127 | A2U G10U A90C G122A | -3.13
128 | A2U G10U C15G G69U U106A | -0.732
129 | A2U G17A | -5.45
130 | A2U G17A C28U A43U G61C G110A | -6.04
131 | A2U G17C A26U G39A U59G G61U A83G C115U | -6.19
132 | A2U G19U G25U A26G A27U | -6.04
133 | A2U G23U G60U C79U G110A | -6
134 | A2U G45A C62U C115U U133A | -2.99
135 | A2U G52C | -3.28
136 | A2U G57U G117U | -5.98
137 | A2U G61C | -3.94
138 | A2U G63U | -4.25
139 | A2U G69A | -4.39
140 | A2U G69U | -1.7
141 | A2U G71U | -2.05
142 | A2U G93U | -2.62
143 | A2U G120C | -1.67
144 | A2U G120U | -1.32

Row | Variant | polymerase ribozyme fitness (log ratio)
145 | A2U U7C G44C G52C C56A | -4.24
146 | A2U U14A G69U C82U A119C G120U | -2.15
147 | A2U U21G C53U G58C C72U U129A | -1.46
148 | A2U U32C C62A | -4.44
149 | A2U U38A G63A C88U | -4.16
150 | A2U U87G | -2.24
151 | C3A A6C A46G C49G G69C C104U | -3.86
152 | C3A A6C A91U U125A | -3.02
153 | C3A A29U G63A C82A A91C C114U G128U | -3.24
154 | C3A A37U C114U | -3.95
155 | C3A A43U | -2.69
156 | C3A A74U G120U U125A | -0.657
157 | C3A A84G | -2.2
158 | C3A C4A G51A G60A A84G G120U | -3.02
159 | C3A C8A C11G C22A G45U C88G | -5.16
160 | C3A C8A C53G C101A | -1.64
161 | C3A C8A C62A C97U | -2.46
162 | C3A C12A | -1.53
163 | C3A C12U G42A G44C C79U C88A A118G G120A | -1.44
164 | C3A C13G C28A G51U G71C G110U | -6.35
165 | C3A C20G A119U A121U U132C | -3.91
166 | C3A C34U C53A C89A C123G | -5.9
167 | C3A C40A A91C G117C A119U | -5.83
